Source: PMC8213127

Experiments:
[1] = molecular target: FlhA from the lateral flagella of Vibrio parahaemolyticus (Vibrio parahaemolyticus); experiment: cryo-EM structure; purified full-length protein at 0.8-1 mg/ml in TBS with 0.01% LMNG; single particle analysis in Relion; C9 symmetry imposed for Vp-FlhA, D9 for Ye-SctV; only the cytoplasmic domain resolved
[2] = molecular target: SctV from Yersinia enterocolitica (Yersinia enterocolitica); experiment: as above

Substance: FlhA from the lateral flagella of Vibrio parahaemolyticus (natural protein)
- stoichiometry N [1]: 9

Substance: SctV from Yersinia enterocolitica (natural protein)
- stoichiometry N [2]: 9
